This passage reports stoichiometry N results from article PMC8657308.

Where two headings read alike, the source gives them in different places.

The target in assay [1] is PahZ2_(KT-1), poly(aspartic acid) hydrolase-2 of Sphingomonas sp. KT-1 (Sphingomonas sp. KT-1). The assay is described as follows: SEC. A general note: In gel filtration, larger molecules generally elute earlier.
For assay [2] the target is unchanged. The assay is described as follows: SEC. The source holds these as a separate data set.

For orientation: stoichiometry N means the number of molecules, sites or subunits per partner or assembly. In the case of “PahZ2_(KT-1), poly(aspartic acid) hydrolase-2 of Sphingomonas sp. KT-1 (enzyme)”, the results for the stoichiometry N in assay [1] and in assay [2] were 1.94 and 2.4, respectively.
